Measured values published in patent US20190375846A1 (ULTRAHUMAN ONE, published 2019).

T1: human GITR at the cell surface (human, UniProt Q9Y5U5 26-241)
T1 construct: whole, on cells; The cell type is named in the assay field of each row; also called human GITR+ cells; CHO-K1 human GITR+ cells
T1 sequence (looked up): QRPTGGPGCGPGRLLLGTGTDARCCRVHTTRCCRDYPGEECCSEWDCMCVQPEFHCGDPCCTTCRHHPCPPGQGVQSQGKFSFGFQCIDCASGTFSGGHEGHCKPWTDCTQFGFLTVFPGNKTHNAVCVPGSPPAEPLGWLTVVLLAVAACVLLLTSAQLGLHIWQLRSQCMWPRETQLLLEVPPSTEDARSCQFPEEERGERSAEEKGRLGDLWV

T2: human GITR-Fc (human, UniProt Q9Y5U5 26-161)
T2 construct: Recombinant GITR-Fc; also called hGITR-Fc; hGITR; not shown: Fc part
T2 sequence (looked up): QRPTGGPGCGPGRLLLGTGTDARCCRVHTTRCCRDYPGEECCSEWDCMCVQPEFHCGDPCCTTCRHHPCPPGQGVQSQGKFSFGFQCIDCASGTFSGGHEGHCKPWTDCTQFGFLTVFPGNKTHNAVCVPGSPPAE


Columns and labels:
[1] = biological target: cynomolgus monkey GITR at the cell surface (cynomolgus monkey); test: cell-based or functional assay
[2] = biological target: T1, human GITR at the cell surface; test: flow cytometry on CHO-K1 human GITR+ cells; competitor: soluble human GITRL
human GITR-Fc = biological target: T2, human GITR-Fc; test: HTRF competition: unlabelled IgG1 titrated 0.003-100 µg/ml against terbium-labelled VH1/VL1 IgG on biotinylated human GITR-Fc with SA-XL665, 665/615 ratio
Procedure: A competition HTRF assay was established to examine epitope competition against VH1/VL1 IgG by grafted and library-derived clones. The purified VH1/VL1 IgG was labelled with terbium using a labelling kit (CisBio) per the manufacturers instructions. The final reaction mix contained biotinylated human GITR-Fc, SA-XL665 (CisBio), terbium-labelled parental […], and competitor IgG of interest, prepared as described above, in a total reaction volume of 20 μl in 1× assay buffer [50 mM sodium phosphate, pH 7.5, 400 mM potassium fluoride, and 0.1% BSA (w/v)]. Reagents were added sequentially on a MiniTrak Liquid Handling Platform (Perkin-Elmer) into 384-well low-volume black plates (Nunc). Reactions proceeded for 1 h at room temperature, and plates were subsequently read on a plate reader with excitation at 340 nm and two emission readings at 615 nm (measuring input donor fluorescence from VH1-VL1-cryptate) and 665 nm (measuring output acceptor fluorescence from SAXL665). Readings were expressed as 665 nm/615 nm ratios.
To examine the competition of the library-derived clones with the unaltered, closest-germline grafted CDRs of VH1/VL1 IgG, an Homogeneous Time Resolved Fluorescence (HTRF) assay was established. This assay incorporated terbium-labelled VH1/VL1 IgG, Biotinylated hGITR-Fc and streptavidin-XL665, in solution-phase binding. […]

[3] = biological target: T3, cynomolgus monkey GITR-Fc (cynomolgus monkey (Macaca fascicularis)); test: direct titration ELISA on coated cyno GITR-Fc, IgG1 0.001-1 µg/ml, OD 450 nm
T3 construct: also called cyno GITR-Fc; cGITR-Fc
Procedure: To coat Greiner Bio-One High bind ELISA plates, target proteins were diluted to 1 μg/ml in carbonate buffer and added at 100 μl per well, at 4° C., o/n. Coated plates were washed 3× with PBS pH7.4, blocked with 1% BSA in PBS (380 μl/well) for 1 hr at RT, then washed 3× with PBS-Tween 20 (PBST). GITR antibodies (100 μl/well; diluted in PBST) were then added and then incubated 1 hr at RT. Plates were then washed 3× with PBST and goat anti-human kappa chain-HRP added (100 μl/well) at RT, for 1 hr. Plates were then washed 3× with PBST and twice with PBS before the addition of 100 μl TMB per well. Reactions were stopped by adding 100 μl 2M H₂SO₄/well and OD was read on a plate reader at 450 nm. IgG binding analysis via ELISA on negatively charged biomolecular surfaces were performed as previously described (see Mouquet et al., 2010, Nature 467: 591-595).
The 17 purified IgGs described above were then tested for binding to human and cyno GITR-Fc in direct titration ELISA format.

EC50 of FcγRIIIa activation, Promega ADCC reporter assay, CHO-K1 target cells expressing cyno GITR [1] [nM]	potency against VH1/VL1 IgG1, ADCC reporter assay on cyno GITR CHO-K1 cells [1] [fold]	fold reduction of binding signal in the presence of 10 µg/ml soluble GITRL [2] [fold]	IC50 (read off the curve) (human GITR-Fc) [µg/mL]	EC50 (read off the curve) [3] [µg/mL]	Binder
57.9	2	> 10	~1		D-A6 IgG1 (antibody, V domains shown, Human IgG1) VH: EVQLVESGGGLVQPGGSLRLSCAASGFSLSTSGYGVGWVRQAPGKGLEWLAHIWWDDDKYYVDSVKGRFTISRDNAKNSLYLQMNSLRAEDTAVYYCARTRQYFPFAYWGQGTLVTVSS VL: EIVLTQSPATLSLSPGERATLSCRASQSVGSNLAWYQQKPGQAPRLLIYSASYRYTGIPARFSGSGSGTDFTLTISSLEPEDFAVYYCQQYSTDPLTFGGGTKVEIK
				~0.05	chimeric anti-GITR IgG1 mVH/mVL (6C8 murine v-domains) (antibody, V domains shown, Full-length human IgG1, kappa; also called GITR-mVH/mVL; chimeric IgG) VH: QVTLKESGPGILKPSQTLSLTCSFSGFSLSTSGMGVGWIRQPSGKGLEWLAHIWWDDDKYYNPSLKSQLTISKDTSRNQVFLKITSVDTADAATYYCARTRRYFPFAYWGQGTLVTVSS VL: DIVMTQSQKFMSTSVGDRVSVTCKASQNVGTNVAWYQQKPGQSPKALIYSASYRYSGVPDRFTGSGSGTDFTLTINNVHSEDLAEYFCQQYNTDPLTFGAGTKLEIK
